B1: NAD-dependent protein deacetylase sirtuin-3, mitochondrial (Homo sapiens), Q9NTG7 (parent)
chain: MAFWGWRAAAALRLWGRVVERVEAGGGVGPFQACGCRLVLGGRDDVSAGLRGSHGARGEPLDPARPLQRPPRPEVPRAFRRQPRAAAPSFFFSSIKGGRRSISFSVGASSVVGSGGSSDKGKLSLQDVAELIRARACQRVVVMVGAGISTPSGIPDFRSPGSGLYSNLQQYDLPYPEAIFELPFFFHNPKPFFTLAKELYPGNYKPNVTHYFLRLLHDKGLLLRLYTQNIDGLERVSGIPASKLVEAHGTFASATCTVCQRPFPGEDIRADVMADRVPRCPVCTGVVKPDIVFFGEPLPQRFLLHVVDFPMADLLLILGTSLEVEPFASLTEAVRSSVPRLLINRDLVGPLAWHPRSRDVAQLGDVVHGVESLVELLGWTEEMRDLVQRETGKLDGPDK

Variants of: B1
Settings: with ppif_mouse Ppif
For H248Y, the “effect of a mutation on the interaction” value was “disrupting interaction”.

Source: IntAct's records for PubMed 21212461
